B1: ATG18 (natural protein, S. cerevisiae, UniProt P43601 1-500, looked up)
chain: MSDSSPTINFINFNQTGTCISLGTSKGFKIFNCEPFGKFYSEDSGGYAIVEMLFSTSLLALVGIGDQPALSPRRLRIINTKKHSIICEVTFPTSILSVKMNKSRLVVLLQEQIYIYDINTMRLLHTIETNPNPRGLMAMSPSVANSYLVYPSPPKVINSEIKAHATTNNITLSVGGNTETSFKRDQQDAGHSDISDLDQYSSFTKRDDADPTSSNGGNSSIIKNGDVIVFNLETLQPTMVIEAHKGEIAAMAISFDGTLMATASDKGTIIRVFDIETGDKIYQFRRGTYATRIYSISFSEDSQYLAVTGSSKTVHIFKLGHSMSNNKLDSDDSNMEEAAADDSSLDTTSIDALSDEENPTRLAREPYVDASRKTMGRMIRYSSQKLSRRAARTLGQIFPIKVTSLLESSRHFASLKLPVETNSHVMTISSIGSPIDIDTSEYPELFETGNSASTESYHEPVMKMVPIRVVSSDGYLYNFVMDPERGGDCLILSQYSILMD
B2: human WIPI4 (natural protein, UniProt Q9Y484 1-360, looked up)
chain: MTQQPLRGVTSLRFNQDQSCFCCAMETGVRIYNVEPLMEKGHLDHEQVGSMGLVEMLHRSNLLALVGGGSSPKFSEISVLIWDDAREGKDSKEKLVLEFTFTKPVLSVRMRHDKIVIVLKNRIYVYSFPDNPRKLFEFDTRDNPKGLCDLCPSLEKQLLVFPGHKCGSLQLVDLASTKPGTSSAPFTINAHQSDIACVSLNQPGTVVASASQKGTLIRLFDTQSKEKLVELRRGTDPATLYCINFSHDSSFLCASSDKGTVHIFALKDTRLNRRSALARVGKVGPMIGQYVDSQWSLASFTVPAESACICAFGRNTSKNVNSVIAICVDGTFHKYVFTPDGNCNREAFDVYLDICDDDDF

What was measured:
human WIPI4 = biological target: B2; assay: SEC
S. cerevisiae ATG2 = S. cerevisiae ATG2 (S. cerevisiae, UniProt P53855 1-1592); assay: negative-stain EM
S. cerevisiae ATG2, sequence (P53855 whole entry): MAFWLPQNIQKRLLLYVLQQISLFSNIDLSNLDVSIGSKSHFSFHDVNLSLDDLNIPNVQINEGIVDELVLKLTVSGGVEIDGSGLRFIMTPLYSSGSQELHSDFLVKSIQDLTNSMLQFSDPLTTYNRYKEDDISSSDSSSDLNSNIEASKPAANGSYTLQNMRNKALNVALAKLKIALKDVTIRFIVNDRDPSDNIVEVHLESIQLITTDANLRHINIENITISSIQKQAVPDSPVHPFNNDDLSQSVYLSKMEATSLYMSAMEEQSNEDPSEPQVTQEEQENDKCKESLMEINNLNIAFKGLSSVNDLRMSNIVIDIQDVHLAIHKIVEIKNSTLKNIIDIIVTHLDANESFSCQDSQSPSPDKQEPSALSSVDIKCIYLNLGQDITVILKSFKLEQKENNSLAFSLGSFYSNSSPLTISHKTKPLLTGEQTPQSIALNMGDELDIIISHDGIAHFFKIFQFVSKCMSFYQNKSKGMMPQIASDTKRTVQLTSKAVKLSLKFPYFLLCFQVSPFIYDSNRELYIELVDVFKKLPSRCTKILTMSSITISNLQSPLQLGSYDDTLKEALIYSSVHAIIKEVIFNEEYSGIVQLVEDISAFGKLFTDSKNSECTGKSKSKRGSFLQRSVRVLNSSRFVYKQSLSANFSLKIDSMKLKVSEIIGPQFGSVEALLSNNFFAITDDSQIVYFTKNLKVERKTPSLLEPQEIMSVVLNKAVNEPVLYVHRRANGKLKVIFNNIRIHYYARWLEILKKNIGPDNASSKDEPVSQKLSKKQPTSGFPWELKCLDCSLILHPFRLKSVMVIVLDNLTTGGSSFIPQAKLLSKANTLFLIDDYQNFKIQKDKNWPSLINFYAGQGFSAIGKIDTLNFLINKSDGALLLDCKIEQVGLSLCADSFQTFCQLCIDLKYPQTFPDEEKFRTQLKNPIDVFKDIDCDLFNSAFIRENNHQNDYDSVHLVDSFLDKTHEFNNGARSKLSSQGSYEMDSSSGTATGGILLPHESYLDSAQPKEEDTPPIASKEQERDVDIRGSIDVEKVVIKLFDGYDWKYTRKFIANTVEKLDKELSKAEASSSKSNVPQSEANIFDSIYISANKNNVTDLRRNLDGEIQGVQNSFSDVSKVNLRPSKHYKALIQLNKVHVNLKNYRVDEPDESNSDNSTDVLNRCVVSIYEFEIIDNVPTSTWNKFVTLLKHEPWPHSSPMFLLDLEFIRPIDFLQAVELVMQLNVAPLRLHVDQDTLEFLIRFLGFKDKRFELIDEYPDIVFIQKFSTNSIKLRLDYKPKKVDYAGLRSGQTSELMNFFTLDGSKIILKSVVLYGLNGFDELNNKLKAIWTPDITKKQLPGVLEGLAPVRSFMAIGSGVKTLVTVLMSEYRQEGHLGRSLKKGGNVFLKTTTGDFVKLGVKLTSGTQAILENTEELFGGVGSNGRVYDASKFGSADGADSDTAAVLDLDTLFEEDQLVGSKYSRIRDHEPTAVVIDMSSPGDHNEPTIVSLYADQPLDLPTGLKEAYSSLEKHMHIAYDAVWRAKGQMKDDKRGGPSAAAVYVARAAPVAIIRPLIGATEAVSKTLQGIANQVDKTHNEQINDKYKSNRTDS

human ATG2A = human ATG2A (human, UniProt Q2TAZ0 1-1938); assay: negative-stain EM
human ATG2A, sequence (Q2TAZ0 whole entry): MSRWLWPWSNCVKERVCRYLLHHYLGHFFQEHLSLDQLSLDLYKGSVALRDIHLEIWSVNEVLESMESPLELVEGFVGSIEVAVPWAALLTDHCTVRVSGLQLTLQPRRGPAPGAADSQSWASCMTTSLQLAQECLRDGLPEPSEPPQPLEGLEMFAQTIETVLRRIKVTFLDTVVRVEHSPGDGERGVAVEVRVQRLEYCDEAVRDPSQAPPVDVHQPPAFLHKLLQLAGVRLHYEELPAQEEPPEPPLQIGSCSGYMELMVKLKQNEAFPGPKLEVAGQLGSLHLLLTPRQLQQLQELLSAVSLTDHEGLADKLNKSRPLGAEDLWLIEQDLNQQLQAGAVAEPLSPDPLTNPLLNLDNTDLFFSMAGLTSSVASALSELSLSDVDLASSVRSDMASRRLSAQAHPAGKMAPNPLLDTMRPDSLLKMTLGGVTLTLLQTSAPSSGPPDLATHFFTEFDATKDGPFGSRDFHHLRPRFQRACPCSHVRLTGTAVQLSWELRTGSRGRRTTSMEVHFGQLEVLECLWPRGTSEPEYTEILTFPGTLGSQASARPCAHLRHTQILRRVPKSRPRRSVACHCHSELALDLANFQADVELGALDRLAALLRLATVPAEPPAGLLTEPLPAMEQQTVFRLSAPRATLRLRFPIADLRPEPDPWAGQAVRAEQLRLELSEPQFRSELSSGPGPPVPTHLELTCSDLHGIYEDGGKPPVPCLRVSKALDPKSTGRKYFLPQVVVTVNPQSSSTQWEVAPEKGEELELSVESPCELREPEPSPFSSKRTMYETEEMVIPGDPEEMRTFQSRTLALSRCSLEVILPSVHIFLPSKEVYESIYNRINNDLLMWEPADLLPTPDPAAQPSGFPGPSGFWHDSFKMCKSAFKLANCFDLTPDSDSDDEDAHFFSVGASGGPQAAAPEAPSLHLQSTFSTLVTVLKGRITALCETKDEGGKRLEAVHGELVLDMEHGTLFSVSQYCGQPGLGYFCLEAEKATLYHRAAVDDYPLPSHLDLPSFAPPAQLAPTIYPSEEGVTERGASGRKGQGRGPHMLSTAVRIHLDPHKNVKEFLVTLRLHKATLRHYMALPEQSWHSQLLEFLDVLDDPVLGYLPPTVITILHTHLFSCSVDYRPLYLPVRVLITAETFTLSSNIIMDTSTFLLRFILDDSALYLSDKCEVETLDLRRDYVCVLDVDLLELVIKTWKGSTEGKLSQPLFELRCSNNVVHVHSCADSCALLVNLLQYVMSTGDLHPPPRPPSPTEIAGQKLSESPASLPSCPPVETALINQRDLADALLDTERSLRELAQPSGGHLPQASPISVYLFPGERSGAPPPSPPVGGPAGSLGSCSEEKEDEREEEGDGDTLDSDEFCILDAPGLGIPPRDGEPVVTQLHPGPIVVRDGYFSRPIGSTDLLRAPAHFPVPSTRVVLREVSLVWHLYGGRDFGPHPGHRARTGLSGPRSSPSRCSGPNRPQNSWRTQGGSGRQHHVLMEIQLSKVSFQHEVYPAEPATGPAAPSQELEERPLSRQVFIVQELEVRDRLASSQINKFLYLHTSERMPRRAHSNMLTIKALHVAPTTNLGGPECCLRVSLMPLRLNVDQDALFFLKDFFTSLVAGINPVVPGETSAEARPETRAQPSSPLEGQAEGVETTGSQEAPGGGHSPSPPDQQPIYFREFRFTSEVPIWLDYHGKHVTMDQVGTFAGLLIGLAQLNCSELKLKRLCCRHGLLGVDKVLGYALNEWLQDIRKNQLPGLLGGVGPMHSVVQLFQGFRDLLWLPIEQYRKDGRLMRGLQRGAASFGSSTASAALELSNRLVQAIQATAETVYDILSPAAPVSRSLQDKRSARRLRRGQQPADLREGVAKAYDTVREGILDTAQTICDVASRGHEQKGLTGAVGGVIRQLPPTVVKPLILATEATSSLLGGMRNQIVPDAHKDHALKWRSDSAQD

DSDEFCILDAPGLGIPPRDGEPVVTQLHPGPIVVRDGYFSRPIGSTD (domain or fragment, human, UniProt Q2TAZ0 1358-1404, looked up) [6xHis-GB1-ATG2A (1358-1404)]
binding result (human WIPI4): binds

B1
binding result (S. cerevisiae ATG2): binds

B2
stoichiometry N (human ATG2A): 1

Reference: doi:10.1101/180315 (bioRxiv, 2018)
